Measurements: publication doi:10.1101/2025.09.11.675134, “Biodistribution-Driven Discovery Identifies a Glycosidase-Cleavable Linker to Reprogram Radiotheranostics” (bioRxiv, 2025)
Like-named read-outs stand apart in the source and are kept apart here.

Test system: β-galactosidase
Conditions: β-galactosidase 10 KU/mL in PBS (10 mM, pH 7.2), 37 °C; for Cleaved product 86Y-DOTA-NHMe, % of the total activity: mixed 1:1 (v/v), radio-TLC
Method: To further confirm β-galactosidase-specific cleavage, ^86Y-DOTA-β-Gal-TATE was incubated in vitro with β-galactosidase and analyzed by radio-TLC over time.
To analyze radioactive urine metabolites, ^86Y-DOTA-MVK(ε)-TATE or ^86Y-DOTA-β-Gal-TATE (13 – 15 MBq in 200 μL PBS, 4 μg) was intravenously injected into normal, non-tumor-bearing athymic nu/nu mice (n = 3). As reference controls, standard metabolites of ^86Y-DOTA-MVK(ε)-TATE (^86Y-DOTA-G-M-OH) and ^86Y-DOTA-β-Gal-TATE (^86Y-DOTA-NHMe) were also prepared and administered to normal athymic, non-tumor-bearing nu/nu mice. Urine samples were collected 1 hour post-injection, centrifuged at 10,000 rpm, and subsequently analyzed by radio-HPLC for each ^86Y-labeled DOTA-TATE variant. The radio-HPLC peaks were compared with those of the standard metabolites (^86Y-DOTA-G-M-OH or ^86Y-DOTA-NHMe). Radio-HPLC analysis was conducted under the same conditions as those used for analyzing the radiolabeled the DOTA-TATE variants, using an Agilent 1260 Infinity II system with a TSK-gel Octadecyl-4PW column and a gradient elution method. For in vitro enzyme-mediated cleavage, β-galactosidase was prepared in PBS (10 mM, pH 7.2) at 10 KU/mL. ^86Y-DOTA-β-Gal-TATE (13–15 MBq in 200 μL PBS) was mixed 1:1 (v/v) with β-galactosidase solution and incubated at 37 °C. Aliquots were taken at 1, 4, and 24 h, centrifuged at 10,000 rpm, and the supernatants were analyzed by radio-TLC. The 24 h sample was further examined by radio-HPLC to confirm metabolite identity.

SMILES: C[C@@H](O)[C@H](NC(=O)[C@@H]1CSSC[C@H](NC(=O)[C@@H](Cc2ccccc2)NC(=O)CCCC(=O)Nc2cc(COC(=O)N(C)CCNC(=O)CN3CCN(CC(=O)O)CCN(CC(=O)O)CCN(CC(=O)O)CC3)ccc2O[C@@H]2O[C@H](CO)[C@H](O)[C@H](O)[C@H]2O)C(=O)N[C@@H](Cc2ccc(O)cc2)C(=O)N[C@H](Cc2c[nH]c3ccccc23)C(=O)N[C@@H](CCCCN)C(=O)N[C@@H]([C@@H](C)O)C(=O)N1)C(=O)O [^86Y-DOTA-β-Gal-TATE, metal not drawn]
- Compound converted to 86Y-DOTA-NHMe (24 h sample, radio-HPLC (peak at 2.6 min)): 90.7%
- Cleaved product 86Y-DOTA-NHMe, % of the total activity (1 h): 24.6%
- Cleaved product 86Y-DOTA-NHMe, % of the total activity (4 h): 50.2%
- Cleaved product 86Y-DOTA-NHMe, % of the total activity (24 h): 88.8%
